Test system: Escherichia coli TOP10
Test: shrunken log2 fold change of peptide-encoding DNA abundance (4.5 h post-induction vs induction); higher = less antimicrobial activity (less host growth inhibition)
Settings: time post-induction: 4.5 h; library: site-saturation at positions 5, 18, 19, 20
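Also: peptides expressed intracellularly from a pBAD plasmid library in pooled LB shake-flask culture, induced with 0.3% L-arabinose, DNA abundance read by NGS, three biological replicates, DESeq2 with apeglm shrinkage.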

## RRIRPRPPRLPRPRPRPTYIPRP
  shrunken log2 fold change: -0.0167

## RRIRYRPPRLPRPRPRPQESPRP
  shrunken log2 fold change: -0.0191

## RRIRYRPPRLPRPRPRPPADPRP
  shrunken log2 fold change: 0.115

## RRIRKRPPRLPRPRPRPVKFPRP
  shrunken log2 fold change: 0.048

## RRIRFRPPRLPRPRPRPYGLPRP
  shrunken log2 fold change: -0.521

## RRIRQRPPRLPRPRPRPVLQPRP
  shrunken log2 fold change: -0.107

## RRIRQRPPRLPRPRPRPGFGPRP
  shrunken log2 fold change: 0.245

## RRIRTRPPRLPRPRPRPGHGPRP
  shrunken log2 fold change: 0.138

## RRIRHRPPRLPRPRPRPRTCPRP
  shrunken log2 fold change: -0.0538

## RRIRARPPRLPRPRPRPNTSPRP
  shrunken log2 fold change: -0.0188

## RRIRWRPPRLPRPRPRPKSAPRP
  shrunken log2 fold change: 0.606

## RRIRWRPPRLPRPRPRPMAVPRP
  shrunken log2 fold change: 0.173

## RRIRERPPRLPRPRPRPAFYPRP
  shrunken log2 fold change: -0.32

## RRIRMRPPRLPRPRPRPCPNPRP
  shrunken log2 fold change: 0.0197

## RRIRCRPPRLPRPRPRPDYQPRP
  shrunken log2 fold change: -0.447

## RRIRSRPPRLPRPRPRPYSAPRP
  shrunken log2 fold change: -0.0105

## RRIRFRPPRLPRPRPRPQSMPRP
  shrunken log2 fold change: -0.434

## RRIRERPPRLPRPRPRPMTWPRP
  shrunken log2 fold change: 0.0575

## RRIRQRPPRLPRPRPRPNMSPRP
  shrunken log2 fold change: -0.313

## RRIRGRPPRLPRPRPRPNHYPRP
  shrunken log2 fold change: -0.416

## RRIRRRPPRLPRPRPRPCRTPRP
  shrunken log2 fold change: 0.173

## RRIRWRPPRLPRPRPRPMGQPRP
  shrunken log2 fold change: 0.0149

## RRIRTRPPRLPRPRPRPNFNPRP
  shrunken log2 fold change: -0.356

## RRIRSRPPRLPRPRPRPAYKPRP
  shrunken log2 fold change: -0.136

## RRIRKRPPRLPRPRPRPGWGPRP
  shrunken log2 fold change: 0.432

## RRIRPRPPRLPRPRPRPRYYPRP
  shrunken log2 fold change: -0.385

## RRIRYRPPRLPRPRPRPHFNPRP
  shrunken log2 fold change: -1.23

## RRIRARPPRLPRPRPRPGFPPRP
  shrunken log2 fold change: 0.213

## RRIRKRPPRLPRPRPRPLFGPRP
  shrunken log2 fold change: 0.439

## RRIRLRPPRLPRPRPRPMLRPRP
  shrunken log2 fold change: 0.0543

## RRIRMRPPRLPRPRPRPYKAPRP
  shrunken log2 fold change: 0.00361

## RRIRERPPRLPRPRPRPEYNPRP
  shrunken log2 fold change: -0.274

## RRIRKRPPRLPRPRPRPTAYPRP
  shrunken log2 fold change: 0.185

## RRIRYRPPRLPRPRPRPAIWPRP
  shrunken log2 fold change: 0.0587

## RRIRWRPPRLPRPRPRPNVMPRP
  shrunken log2 fold change: -0.00962

## RRIRPRPPRLPRPRPRPNVRPRP
  shrunken log2 fold change: -0.163

## RRIRHRPPRLPRPRPRPMGDPRP
  shrunken log2 fold change: -0.0774

## RRIRRRPPRLPRPRPRPIDCPRP
  shrunken log2 fold change: 0.00203

## RRIRIRPPRLPRPRPRPGCIPRP
  shrunken log2 fold change: -0.523

## RRIRRRPPRLPRPRPRPQTWPRP
  shrunken log2 fold change: 0.345

## RRIRKRPPRLPRPRPRPEISPRP
  shrunken log2 fold change: -0.0587

## RRIRHRPPRLPRPRPRPQDNPRP
  shrunken log2 fold change: -0.144

## RRIRWRPPRLPRPRPRPYCFPRP
  shrunken log2 fold change: -0.379

## RRIRWRPPRLPRPRPRPRSFPRP
  shrunken log2 fold change: -0.00655

## RRIRYRPPRLPRPRPRPAWTPRP
  shrunken log2 fold change: -0.156

## RRIRGRPPRLPRPRPRPINMPRP
  shrunken log2 fold change: -0.0846

## RRIRHRPPRLPRPRPRPQNLPRP
  shrunken log2 fold change: -0.00783

## RRIRKRPPRLPRPRPRPAQRPRP
  shrunken log2 fold change: 0.946

## RRIRQRPPRLPRPRPRPNYAPRP
  shrunken log2 fold change: -0.0208

## RRIRDRPPRLPRPRPRPLKDPRP
  shrunken log2 fold change: -0.225

## RRIRPRPPRLPRPRPRPAWKPRP
  shrunken log2 fold change: -0.109

## RRIRFRPPRLPRPRPRPWEKPRP
  shrunken log2 fold change: -0.0348

## RRIRVRPPRLPRPRPRPAYWPRP
  shrunken log2 fold change: -0.000323

## RRIRVRPPRLPRPRPRPICSPRP
  shrunken log2 fold change: -0.154

## RRIRFRPPRLPRPRPRPRQEPRP
  shrunken log2 fold change: 0.0178

## RRIRHRPPRLPRPRPRPAYFPRP
  shrunken log2 fold change: -0.833

## RRIRQRPPRLPRPRPRPIPHPRP
  shrunken log2 fold change: 0.021

## RRIRVRPPRLPRPRPRPTITPRP
  shrunken log2 fold change: -0.178

## RRIRQRPPRLPRPRPRPRNMPRP
  shrunken log2 fold change: -0.211

## RRIRTRPPRLPRPRPRPSYDPRP
  shrunken log2 fold change: -0.495

## RRIRSRPPRLPRPRPRPMTWPRP
  shrunken log2 fold change: -0.0238

## RRIRHRPPRLPRPRPRPDCHPRP
  shrunken log2 fold change: 0.0149

## RRIRTRPPRLPRPRPRPMGQPRP
  shrunken log2 fold change: 0.103

## RRIRERPPRLPRPRPRPNWRPRP
  shrunken log2 fold change: 0.194

## RRIRHRPPRLPRPRPRPCYNPRP
  shrunken log2 fold change: -0.427

## RRIRERPPRLPRPRPRPDQTPRP
  shrunken log2 fold change: -0.00664

## RRIRSRPPRLPRPRPRPWTFPRP
  shrunken log2 fold change: -0.199

## RRIRVRPPRLPRPRPRPMHNPRP
  shrunken log2 fold change: -0.268

## RRIRTRPPRLPRPRPRPLECPRP
  shrunken log2 fold change: -0.0489

## RRIRIRPPRLPRPRPRPWLVPRP
  shrunken log2 fold change: -0.038

## RRIRVRPPRLPRPRPRPAHSPRP
  shrunken log2 fold change: 0.0902

## RRIRFRPPRLPRPRPRPYEDPRP
  shrunken log2 fold change: -0.951

## RRIRWRPPRLPRPRPRPFPYPRP
  shrunken log2 fold change: -0.44

## RRIRSRPPRLPRPRPRPHAHPRP
  shrunken log2 fold change: -0.32

## RRIRRRPPRLPRPRPRPMEMPRP
  shrunken log2 fold change: -0.0817

## RRIRSRPPRLPRPRPRPEDHPRP
  shrunken log2 fold change: 0.146

## RRIRSRPPRLPRPRPRPCTCPRP
  shrunken log2 fold change: -0.177

## RRIRDRPPRLPRPRPRPRWYPRP
  shrunken log2 fold change: -0.0526

## RRIRIRPPRLPRPRPRPYTIPRP
  shrunken log2 fold change: -0.605

## RRIRTRPPRLPRPRPRPCNIPRP
  shrunken log2 fold change: 0.048

## RRIRDRPPRLPRPRPRPNIKPRP
  shrunken log2 fold change: -0.384

## RRIRKRPPRLPRPRPRPLQTPRP
  shrunken log2 fold change: 0.182

## RRIRDRPPRLPRPRPRPVPHPRP
  shrunken log2 fold change: 0.012

## RRIRSRPPRLPRPRPRPHSTPRP
  shrunken log2 fold change: -0.312

## RRIRTRPPRLPRPRPRPITFPRP
  shrunken log2 fold change: -0.108

## RRIRNRPPRLPRPRPRPCDFPRP
  shrunken log2 fold change: -0.529

## RRIRLRPPRLPRPRPRPNSAPRP
  shrunken log2 fold change: 0.0654

## RRIRHRPPRLPRPRPRPHFLPRP
  shrunken log2 fold change: -0.0519

## RRIRWRPPRLPRPRPRPAYGPRP
  shrunken log2 fold change: -0.213

## RRIRIRPPRLPRPRPRPANFPRP
  shrunken log2 fold change: -0.554

## RRIRNRPPRLPRPRPRPNKAPRP
  shrunken log2 fold change: -0.000622

## RRIRQRPPRLPRPRPRPHPQPRP
  shrunken log2 fold change: 0.24

## RRIRPRPPRLPRPRPRPLRFPRP
  shrunken log2 fold change: 0.431

## RRIRMRPPRLPRPRPRPHSNPRP
  shrunken log2 fold change: 0.0878

## RRIRNRPPRLPRPRPRPAINPRP
  shrunken log2 fold change: 0.0991

## RRIRHRPPRLPRPRPRPVSNPRP
  shrunken log2 fold change: -0.222

## RRIRIRPPRLPRPRPRPMYGPRP
  shrunken log2 fold change: -0.437

## RRIRIRPPRLPRPRPRPKEEPRP
  shrunken log2 fold change: 0.0133

## RRIRSRPPRLPRPRPRPVDIPRP
  shrunken log2 fold change: 0.147

## RRIRRRPPRLPRPRPRPNDIPRP
  shrunken log2 fold change: -0.349

## RRIRSRPPRLPRPRPRPQDIPRP
  shrunken log2 fold change: -0.296

## RRIRHRPPRLPRPRPRPWIQPRP
  shrunken log2 fold change: -0.0803

## RRIRARPPRLPRPRPRPCPCPRP
  shrunken log2 fold change: -0.0932

## RRIRNRPPRLPRPRPRPRKSPRP
  shrunken log2 fold change: 0.132

## RRIRMRPPRLPRPRPRPTKNPRP
  shrunken log2 fold change: 1.35

## RRIRIRPPRLPRPRPRPLMCPRP
  shrunken log2 fold change: -0.164

## RRIRGRPPRLPRPRPRPELAPRP
  shrunken log2 fold change: 2

## RRIRQRPPRLPRPRPRPKSRPRP
  shrunken log2 fold change: 0.0336

## RRIRRRPPRLPRPRPRPSGIPRP
  shrunken log2 fold change: -0.0479
